Tests used:
HeLa Kyoto [1] = test: solubility in G1/S (NP-40 vs SDS abundance) (log2 ratio); higher = more soluble; conditions: cell cycle stage: G1/S
HeLa Kyoto [2] = test: solubility change mitosis vs G1/S (difference of NP-40 vs SDS log2 ratios) (log2 ratio difference); higher = more soluble in mitosis
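For solubility change mitosis vs G1/S (difference of NP-40 vs SDS log2 ratios) in this document: synchronized HeLa Kyoto cells (double thymidine block for G1/S, nocodazole release for mitosis), protein amounts in NP-40 versus SDS lysates quantified by mass spectrometry, three biological replicates.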
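For solubility in G1/S (NP-40 vs SDS abundance) in this document: HeLa Kyoto cells arrested at G1/S by double thymidine block, proteins quantified by TMT10plex mass spectrometry in mild NP-40 versus SDS extracts, three biological replicates.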

Sequence of WWC1 (chain, as listed by the source): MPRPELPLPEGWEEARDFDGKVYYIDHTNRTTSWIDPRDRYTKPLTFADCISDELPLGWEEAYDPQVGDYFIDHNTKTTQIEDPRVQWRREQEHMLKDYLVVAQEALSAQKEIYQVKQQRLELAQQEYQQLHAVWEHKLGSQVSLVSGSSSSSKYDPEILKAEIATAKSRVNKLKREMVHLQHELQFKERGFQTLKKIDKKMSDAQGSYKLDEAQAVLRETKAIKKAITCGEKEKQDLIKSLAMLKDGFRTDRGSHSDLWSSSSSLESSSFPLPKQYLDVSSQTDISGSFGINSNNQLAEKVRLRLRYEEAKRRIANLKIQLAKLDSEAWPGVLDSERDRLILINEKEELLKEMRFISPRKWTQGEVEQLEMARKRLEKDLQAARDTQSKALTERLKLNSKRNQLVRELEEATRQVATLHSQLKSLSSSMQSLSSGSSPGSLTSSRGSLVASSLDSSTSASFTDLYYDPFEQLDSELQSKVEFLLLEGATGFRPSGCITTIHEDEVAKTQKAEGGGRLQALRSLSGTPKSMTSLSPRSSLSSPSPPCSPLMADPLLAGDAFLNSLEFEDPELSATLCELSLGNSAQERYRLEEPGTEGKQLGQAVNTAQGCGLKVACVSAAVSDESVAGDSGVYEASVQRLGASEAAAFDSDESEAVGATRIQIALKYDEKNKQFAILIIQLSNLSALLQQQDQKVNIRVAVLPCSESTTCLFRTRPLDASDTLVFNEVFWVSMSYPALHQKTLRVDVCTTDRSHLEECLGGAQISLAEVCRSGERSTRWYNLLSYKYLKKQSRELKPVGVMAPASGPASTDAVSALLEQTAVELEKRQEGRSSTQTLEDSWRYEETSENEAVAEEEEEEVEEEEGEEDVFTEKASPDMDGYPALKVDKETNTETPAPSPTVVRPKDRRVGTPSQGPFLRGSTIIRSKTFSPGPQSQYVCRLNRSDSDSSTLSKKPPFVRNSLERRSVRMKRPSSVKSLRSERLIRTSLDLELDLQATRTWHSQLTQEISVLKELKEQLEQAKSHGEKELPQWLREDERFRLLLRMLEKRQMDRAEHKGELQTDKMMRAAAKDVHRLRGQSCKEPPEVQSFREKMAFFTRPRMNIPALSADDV

Row | Substance | solubility in G1/S (log2) (HeLa Kyoto [1]) | solubility change mitosis (log2) (HeLa Kyoto [2])
1 | MAEAATGFLEQLKSCIVWSWTYLWTVWFFIVLFLVYILRVPLKINDNLSTVSMFLNTLTPKFYVALTGTSSLISGLILIFEWWYFRKYGTSFIEQVSVSHLRPLLGGVDNNSSNNSNSSNGDSDSNRQSVSECKVWRNPLNLFRGAEYNRYTWVTGREPLTYYDMNLSAQDHQTFFTCDSDHLRPADAIMQKAWRERNPQARISAAHEALEINEIRSRVEVPLIASSTIWEIKLLPKCATAYILLAEEEATTIAEAEKLFKQALKAGDGCYRRSQQLQHHGSQYEAQHRRDTNVLVYIKRRLAMCARRLGRTREAVKMMRDLMKEFPLLSMFNIHENLLEALLELQAYADVQAVLAKYDDISLPKSATICYTAALLKARAVSDKFSPEAASRRGLSTAEMNAVEAIHRAVEFNPHVPKYLLEMKSLILPPEHILKRGDSEAIAYAFFHLAHWKRVEGALNLLHCTWEGTFRMIPYPLEKGHLFYPYPICTETADRELLPSFHEVSVYPKKELPFFILFTAGLCSFTAMLALLTHQFPELMGVFAKAMIDIFCSAEFRDWNCKSIFMRVEDELEIPPAPQSQHFQN [ST7] | -0.381 | 0.0591
2 | MDPRGTKRGAEKTEVAEPRNKLPRPAPSLPTDPALYSGPFPFYRRPSELGCFSLDAQRQYHGDARALRYYSPPPTNGPGPNFDLRDGYPDRYQPRDEEVQERLDHLLCWLLEHRGRLEGGPGWLAEAIVTWRGHLTKLLTTPYERQEGWQLAASRFQGTLYLSEVETPNARAQRLARPPLLRELMYMGYKFEQYMCADKPGSSPDPSGEVNTNVAFCSVLRSRLGSHPLLFSGEVDCTDPQAPSTQPPTCYVELKTSKEMHSPGQWRSFYRHKLLKWWAQSFLPGVPNVVAGFRNPDGFVSSLKTFPTMKMFEYVRNDRDGWNPSVCMNFCAAFLSFAQSTVVQDDPRLVHLFSWEPGGPVTVSVHQDAPYAFLPIWYVEAMTQDLPSPPKTPSPK [DXO] | 0.0451 | -0.2
3 | WWC1 | -0.00567 | -0.4
4 | WDR81 | -0.0834 | -0.333
5 | MVVLRSSLELHNHSAASATGSLDLSSDFLSLEHIGRRRLRSAGAAQKKPAATTAKAGDGSSVKEVETYHRTRALRSLRKDAQNSSDSSFEKNVEITEQLANGRHFTRQLARQQADKKKEEHREDKVIPVTRSLRARNIVQSTEHLHEDNGDVEVRRSCRIRSRYSGVNQSMLFDKLITNTAEAVLQKMDDMKKMRRQRMRELEDLGVFNETEESNLNMYTRGKQKDIQRTDEETTDNQEGSVESSEEGEDQEHEDDGEDEDDEDDDDDDDDDDDDDDEDDEDEEDGEEENQKRYYLRQRKATVYYQAPLEKPRHQRKPNIFYSGPASPARPRYRLSSAGPRSPYCKRMNRRRHAIHSSDSTSSSSSEDEQHFERRRKRSRNRAINRCLPLNFRKDELKGIYKDRMKIGASLADVDPMQLDSSVRFDSVGGLSNHIAALKEMVVFPLLYPEVFEKFKIQPPRGCLFYGPPGTGKTLVARALANECSQGDKRVAFFMRKGADCLSKWVGESERQLRLLFDQAYQMRPSIIFFDEIDGLAPVRSSRQDQIHSSIVSTLLALMDGLDSRGEIVVIGATNRLDSIDPALRRPGRFDREFLFSLPDKEARKEILKIHTRDWNPKPLDTFLEELAENCVGYCGADIKSICAEAALCALRRRYPQIYTTSEKLQLDLSSINISAKDFEVAMQKMIPASQRAVTSPGQALSTVVKPLLQNTVDKILEALQRVFPHAEFRTNKTLDSDISCPLLESDLAYSDDDVPSVYENGLSQKSSHKAKDNFNFLHLNRNACYQPMSFRPRILIVGEPGFGQGSHLAPAVIHALEKFTVYTLDIPVLFGVSTTSPEETCAQVIREAKRTAPSIVYVPHIHVWWEIVGPTLKATFTTLLQNIPSFAPVLLLATSDKPHSALPEEVQELFIRDYGEIFNVQLPDKEERTKFFEDLILKQAAKPPISKKKAVLQALEVLPVAPPPEPRSLTAEEVKRLEEQEEDTFRELRIFLRNVTHRLAIDKRFRVFTKPVDPDEVPDYVTVIKQPMDLSSVISKIDLHKYLTVKDYLRDIDLICSNALEYNPDRDPGDRLIRHRACALRDTAYAIIKEELDEDFEQLCEEIQESRKKRGCSSSKYAPSYYHVMPKQNSTLVGDKRSDPEQNEKLKTPSTPVACSTPAQLKRKIRKKSNWYLGTIKKRRKISQAKDDSQNAIDHKIESDTEETQDTSVDHNETGNTGESSVEENEKQQNASESKLELRNNSNTCNIENELEDSRKTTACTELRDKIACNGDASSSQIIHISDENEGKEMCVLRMTRARRSQVEQQQLITVEKALAILSQPTPSLVVDHERLKNLLKTVVKKSQNYNIFQLENLYAVISQCIYRHRKDHDKTSLIQKMEQEVENFSCSR [ATAD2] | -3.07 | 2.36
6 | MTTLTHRARRTEISKNSEKKMESEEDSNWEKSPDNEDSGDSKDIRLTLMEEVLLLGLKDKEGYTSFWNDCISSGLRGGILIELAMRGRIYLEPPTMRKKRLLDRKVLLKSDSPTGDVLLDETLKHIKATEPTETVQTWIELLTGETWNPFKLQYQLRNVRERIAKNLVEKGILTTEKQNFLLFDMTTHPVTNTTEKQRLVKKLQDSVLERWVNDPQRMDKRTLALLVLAHSSDVLENVFSSLTDDKYDVAMNRAKDLVELDPEVEGTKPSATEMIWAVLAAFNKS [GOLPH3L] | 0.202 | 0.0306
7 | MFNRAVSRLSRKRPPSDIHDSDGSSSSSHQSLKSTAKWAASLENLLEDPEGVKRFREFLKKEFSEENVLFWLACEDFKKMQDKTQMQEKAKEIYMTFLSSKASSQVNVEGQSRLNEKILEEPHPLMFQKLQDQIFNLMKYDSYSRFLKSDLFLKHKRTEEEEEDLPDAQTAAKRASRIYNT [RGS10] | 0.563 | 0.405
8 | MRRDVNGVTKSRFEMFSNSDEAVINKKLPKELLLRIFSFLDVVTLCRCAQVSRAWNVLALDGSNWQRIDLFDFQRDIEGRVVENISKRCGGFLRKLSLRGCLGVGDNALRTFAQNCRNIEVLNLNGCTKTTDATCTSLSKFCSKLRHLDLASCTSITNMSLKALSEGCPLLEQLNISWCDQVTKDGIQALVRGCGGLKALFLKGCTQLEDEALKYIGAHCPELVTLNLQTCLQITDEGLITICRGCHKLQSLCASGCSNITDAILNALGQNCPRLRILEVARCSQLTDVGFTTLARNCHELEKMDLEECVQITDSTLIQLSIHCPRLQVLSLSHCELITDDGIRHLGNGACAHDQLEVIELDNCPLITDASLEHLKSCHSLERIELYDCQQITRAGIKRLRTHLPNIKVHAYFAPVTPPPSVGGSRQRFCRCCIIL [FBXL20] | -0.0856 | -0.0226
9 | MAARPITLGIDLGTTSVKAALLRAAPDDPSGFAVLASCARAARAEAAVESAVAGPQGREQDVSRILQALHECLAALPRPQLRSVVGIGVSGQMHGVVFWKTGQGCEWTEGGITPVFEPRAVSHLVTWQDGRCSSEFLASLPQPKSHLSVATGFGCATIFWLLKYRPEFLKSYDAAGTIHDYVVAMLCGLPRPLMSDQNAASWGYFNTQSQSWNVETLRSSGFPVHLLPDIAEPGSVAGRTSHMWFEIPKGTQVGVALGDLQASVYSCMAQRTDAVLNISTSVQLAASMPSGFQPAQTPDPTAPVAYFPYFNRTYLGVAASLNGGNVLATFVHMLVQWMADLGLEVEESTVYSRMIQAAVQQRDTHLTITPTVLGERHLPDQLASVTRISSSDLSLGHVTRALCRGIVQNLHSMLPIQQLQEWGVERVMGSGSALSRNDVLKQEVQRAFPLPMSFGQDVDAAVGAALVMLRRHLNQKES [SHPK] | -0.0429 | -0.108
10 | MLPPMALPSVSWMLLSCLMLLSQVQGEEPQRELPSARIRCPKGSKAYGSHCYALFLSPKSWTDADLACQKRPSGNLVSVLSGAEGSFVSSLVKSIGNSYSYVWIGLHDPTQGTEPNGEGWEWSSSDVMNYFAWERNPSTISSPGHCASLSRSTAFLRWKDYNCNVRLPYVCKFTD [PAP1] | 0.102 | -0.21
11 | MAARGRRAWLSVLLGLVLGFVLASRLVLPRASELKRAGPRRRASPEGCRSGQAAASQAGGARGDARGAQLWPPGSDPDGGPRDRNFLFVGVMTAQKYLQTRAVAAYRTWSKTIPGKVQFFSSEGSDTSVPIPVVPLRGVDDSYPPQKKSFMMLKYMHDHYLDKYEWFMRADDDVYIKGDRLENFLRSLNSSEPLFLGQTGLGTTEEMGKLALEPGENFCMGGPGVIMSREVLRRMVPHIGKCLREMYTTHEDVEVGRCVRRFAGVQCVWSYEMQQLFYENYEQNKKGYIRDLHNSKIHQAITLHPNKNPPYQYRLHSYMLSRKISELRHRTIQLHREIVLMSKYSNTEIHKEDLQLGIPPSFMRFQPRQREEILEWEFLTGKYLYSAVDGQPPRRGMDSAQREALDDIVMQVMEMINANAKTRGRIIDFKEIQYGYRRVNPMYGAEYILDLLLLYKKHKGKKMTVPVRRHAYLQQTFSKIQFVEHEELDAQELAKRINQESGSLSFLSNSLKKLVPFQLPGSKSEHKEPKDKKINILIPLSGRFDMFVRFMGNFEKTCLIPNQNVKLVVLLFNSDSNPDKAKQVELMRDYRIKYPKADMQILPVSGEFSRALALEVGSSQFNNESLLFFCDVDLVFTTEFLQRCRANTVLGQQIYFPIIFSQYDPKIVYSGKVPSDNHFAFTQKTGFWRNYGFGITCIYKGDLVRVGGFDVSIQGWGLEDVDLFNKVVQAGLKTFRSQEVGVVHVHHPVFCDPNLDPKQYKMCLGSKASTYGSTQQLAEMWLEKNDPSYSKSSNNNGSVRTA [CHSY1] | -0.388 | 0.159
12 | MPKIVLNGVTVDFPFQPYKCQQEYMTKVLECLQQKVNGILESPTGTGKTLCLLCTTLAWREHLRDGISARKIAERAQGELFPDRALSSWGNAAAAAGDPIACYTDIPKIIYASRTHSQLTQVINELRNTSYRPKVCVLGSREQLCIHPEVKKQESNHLQIHLCRKKVASRSCHFYNNVEEKSLEQELASPILDIEDLVKSGSKHRVCPYYLSRNLKQQADIIFMPYNYLLDAKSRRAHNIDLKGTVVIFDEAHNVEKMCEESASFDLTPHDLASGLDVIDQVLEEQTKAAQQGEPHPEFSADSPSPGLNMELEDIAKLKMILLRLEGAIDAVELPGDDSGVTKPGSYIFELFAEAQITFQTKGCILDSLDQIIQHLAGRAGVFTNTAGLQKLADIIQIVFSVDPSEGSPGSPAGLGALQSYKVHIHPDAGHRRTAQRSDAWSTTAARKRGKVLSYWCFSPGHSMHELVRQGVRSLILTSGTLAPVSSFALEMQIPFPVCLENPHIIDKHQIWVGVVPRGPDGAQLSSAFDRRFSEECLSSLGKALGNIARVVPYGLLIFFPSYPVMEKSLEFWRARDLARKMEALKPLFVEPRSKGSFSETISAYYARVAAPGSTGATFLAVCRGKASEGLDFSDTNGRGVIVTGLPYPPRMDPRVVLKMQFLDEMKGQGGAGGQFLSGQEWYRQQASRAVNQAIGRVIRHRQDYGAVFLCDHRFAFADARAQLPSWVRPHVRVYDNFGHVIRDVAQFFRVAERTMPAPAPRATAPSVRGEDAVSEAKSPGPFFSTRKAKSLDLHVPSLKQRSSGSPAAGDPESSLCVEYEQEPVPARQRPRGLLAALEHSEQRAGSPGEEQAHSCSTLSLLSEKRPAEEPRGGRKKIRLVSHPEEPVAGAQTDRAKLFMVAVKQELSQANFATFTQALQDYKGSDDFAALAACLGPLFAEDPKKHNLLQGFYQFVRPHHKQQFEEVCIQLTGRGCGYRPEHSIPRRQRAQPVLDPTGRTAPDPKLTVSTAAAQQLDPQEHLNQGRPHLSPRPPPTGDPGSQPQWGSGVPRAGKQGQHAVSAYLADARRALGSAGCSQLLAALTAYKQDDDLDKVLAVLAALTTAKPEDFPLLHRFSMFVRPHHKQRFSQTCTDLTGRPYPGMEPPGPQEERLAVPPVLTHRAPQPGPSRSEKTGKTQSKISSFLRQRPAGTVGAGGEDAGPSQSSGPPHGPAASEWGL [RTEL1] | -0.0713 | -0.104

— the supplement of paper PMC5998384
